Laboratory results taken from US12083134B2, “Anacardic acid for neural repair” (Vanderbilt University, priority 2018, dated 2024).

Assays:
[1] = system: MBP, Mog, Plp, Purα, Sox10, Sp-1 in OPCs; assay: qRT-PCR of myelin genes and MBP promoter transcription elements in OPCs cultured with IL-33; format: cell-based, rat
Excerpt: (§1) FIG. 7A provides Western blot analysis of MPB expression in OPC cultures treated with IL-33. FIG. 7B provides qRT-PCR analysis showing the gene expression of transcription elements that bind to the MPB promoter region and major myelin genes treated with IL-33. T3 is the thyroid hormone internal positive control.
(§2) The importance of IL-33 as an inducer of a number of myelin genes has been shown. […] The expression of MBP, myelin oligodendrocyte glycoprotein (Mog), and proteolipoprotien (Plp) along with mRNAs of Purα, Sox10, and Sp-1 in OPCs cultured with IL-33 was quantified. Purα, Sox10, and Sp-1 are transcription elements that bind to the promoter region of MBP to initiate MBP gene expression.

[2] = system: dorsal root ganglia-OPC co-cultures; assay: In vitro myelination of axons in dorsal root ganglia-OPC co-cultures with IL-33; format: cell-based; conditions: DRG-OPC co-cultures, rat rIL-33 10 ng/ml, 16 days
Procedure: FIG. 9 provides images showing the myelination of dorsal root ganglion axons. The arrows point to the longer segments of myelinated internodes in cultures with added IL-33 (20×).
In preliminary studies, in vitro myelination of axons in the presence of IL-33 using dorsal root ganglia-OPC co-cultures was examined. Dorsal root ganglions (DRGs) were dissected from postnatal day 2 (P2) rat pups and cultured by established methods. Once the OPCs attached to the plates, they were treated with rat rIL-33 (10 ng/ml) for 16 days. At the end of the experiment, cells were stained with tubulin β for axons and MBP for myelin forming oligodendrocytes. Quantitation of myelin in axons was done using image analysis and the amount of myelin around the axons was determined. […] When compared to vehicle treated controls, there was an 18% increase in MBP in cultures treated with IL-33.

MBP in OPCs = assay: Western blot of MBP expression in OPC cultures treated with IL-33; format: cell-based, rat; conditions: OPCs treated with IL-33
Excerpt: as §1, §2

OPCs = assay: Maturation of OPCs cultured with IL-33 (O4 and MBP expressing cells); format: cell-based, rat
Excerpt: The graphs to the right show the quantitation of O4 and MBP.
The formation of CNS myelin is dependent on the differentiation and maturation of OPCs. The process of maturation is well recognized both in vitro and in vivo. Immature OPCs express the receptor for platelet derived growth factor (PDGFR) and also express proteins that are recognized by antibody A2B5, anti O4, and anti Olig2 antibodies. As oligodendrocytes mature they lose their reactivity to A2B5, PDGFR, and Olig 2 and they begin to express myelin proteins including MBP. The degree of maturation can be assessed by determining the percentage of cells expressing early lineage markers such as O4 and the later markers such as MBP. The expression of O4 and MBP in OPCs cultured for 4 and 14 days in the presence or absence of IL-33 was determined. […] The increase seen with IL-33 was similar to that seen with AA.

B1: IL-33: recombinant cytokine IL-33 (rat rIL-33) added exogenously to OPC cultures (protein, UniProt Q66H70 1-264, looked up)
Interleukin-33: MRPRMKYSNSKISPAKCDSTSGRALVPPCKITRSQQKTKDICHVYCMRLRSGLTIRKETCYFGKEPAKRYSLKSGSKHEGRLSTCLPDSRKRSLLGSIQAFAASVDTLSIQGTSLLTESCALSTYNDQSVSFVLENGCYVINVEDCGKNQEKDKVLLRYYESSFPAQSGDGVDGKKLMVNMSPIKDTDIWLNANDKDYSVELQKGDVSPPDQAFFVLHKKSSDFVSFECKNLPGTYIGVKDNQLALVEENDESCNNIMFKLSKM
For B1, the “induced expression of MBP” value [1] was 4.5 fold, the “induced expression of Mog” value [1] was 3.8 fold and the “induced expression of PLP” value [1] was 2.3 fold. The “induced expression of Purα” value [1] was 2.1 fold, the “induced expression of Sox10” value [1] was 3.9 fold and the “induced expression of Sp1” value [1] was 2.2 fold. For the same molecule, the “increase in MBP vs vehicle treated controls” value [2] was 18%, the “induction of MBP” value (MBP in OPCs) was 26% and the “increase in O4 expressing cells vs normal growth medium” value (OPCs; OPCs cultured with IL-33, 4 days) was 2.3 fold. The “formation of mature oligodendrocytes expressing MBP” value (OPCs; OPCs cultured with IL-33, 14 days) was “increased formation of mature oligodendrocytes”.
